Laboratory results taken from US20150344570A1 (published 2015).

B1: GpH7-A5/GpH7-B3 variant V266_08L/GpL16-k0 (antibody, human IgG1, kappa)
heavy 1: not shown
heavy 2: not shown
light: DIVMTQSPLSLPVTPGEPASISCQASESLVHSNRNTYLHWYLQKPGQSPQLLIYKVSNRFSGVPDRFSGSGSGTDFTLKISRVEAEDVGVYYCSQNTHVPPTFGQGTKVEIERTVAAPSVFIFPPSDEQLKSGTASVVCLLNNFYPREAKVQWKVDNALQSGNSQESVTEQDSKDSTYSLSSTLTLSKADYEKHKVYACEVTHQGLSSPVTKSFNRGEC
notes: Heterodimerized anti-glypican-3 IgG1; alteration in the GpH7-B3 chain only; also called He Ab
B2: GpH7-B3 variant P271_02A/GpL16-k0 (antibody, human IgG1, kappa)
heavy: not shown
light: B1 light
notes: homodimerized IgG1, mutation in both H chains; also called Ho Ab
B3: GpH7-B3 variant K334_10E/GpL16-k0 (antibody, human IgG1, kappa)
heavy: not shown
light: B1 light
notes: as for B2
B4: GpH7-B3 variant E333_13S/GpL16-k0 (antibody, human IgG1, kappa)
heavy: not shown
light: B1 light
notes: as for B2
B5: GpH7-B3 variant S267_09D/GpL16-k0 (antibody, human IgG1, kappa)
heavy: not shown
light: B1 light
notes: as for B2
B6: GpH7-B3 variant I336_04F/GpL16-k0 (antibody, human IgG1, kappa)
heavy: not shown
light: B1 light
notes: as for B2
B7: GpH7-B3 variant S298_07I/GpL16-k0 (antibody, human IgG1, kappa)
heavy: not shown
light: B1 light
notes: as for B2
B8: GpH7-B3 variant P271_04F/GpL16-k0 (antibody, human IgG1, kappa)
heavy: not shown
light: B1 light
notes: as for B2
B9: GpH7-B3 variant Q295_04F/GpL16-k0 (antibody, human IgG1, kappa)
heavy: not shown
light: B1 light
notes: as for B2
B10: GpH7-B3 variant G236_20W/GpL16-k0 (antibody, human IgG1, kappa)
heavy: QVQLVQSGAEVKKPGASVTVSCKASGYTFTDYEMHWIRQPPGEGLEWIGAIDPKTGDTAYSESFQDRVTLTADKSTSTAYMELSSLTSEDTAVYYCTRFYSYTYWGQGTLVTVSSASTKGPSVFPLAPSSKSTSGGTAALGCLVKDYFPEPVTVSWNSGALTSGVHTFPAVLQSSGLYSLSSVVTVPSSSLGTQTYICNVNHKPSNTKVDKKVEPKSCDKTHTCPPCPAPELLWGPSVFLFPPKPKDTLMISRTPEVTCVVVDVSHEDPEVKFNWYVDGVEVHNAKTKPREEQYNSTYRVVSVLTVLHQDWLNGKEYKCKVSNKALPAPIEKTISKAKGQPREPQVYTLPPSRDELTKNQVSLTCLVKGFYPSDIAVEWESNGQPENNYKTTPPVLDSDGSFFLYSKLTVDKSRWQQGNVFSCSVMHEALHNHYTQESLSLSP
light: B1 light
notes: as for B2
B11: GpH7-B3 variant Q295_13S/GpL16-k0 (antibody, human IgG1, kappa)
heavy: not shown
light: B1 light
notes: as for B2
B12: GpH7-B3 variant S267_03V/GpL16-k0 (antibody, human IgG1, kappa)
heavy: not shown
light: B1 light
notes: as for B2
B13: GpH7-B3 variant Q295_02A/GpL16-k0 (antibody, human IgG1, kappa)
heavy: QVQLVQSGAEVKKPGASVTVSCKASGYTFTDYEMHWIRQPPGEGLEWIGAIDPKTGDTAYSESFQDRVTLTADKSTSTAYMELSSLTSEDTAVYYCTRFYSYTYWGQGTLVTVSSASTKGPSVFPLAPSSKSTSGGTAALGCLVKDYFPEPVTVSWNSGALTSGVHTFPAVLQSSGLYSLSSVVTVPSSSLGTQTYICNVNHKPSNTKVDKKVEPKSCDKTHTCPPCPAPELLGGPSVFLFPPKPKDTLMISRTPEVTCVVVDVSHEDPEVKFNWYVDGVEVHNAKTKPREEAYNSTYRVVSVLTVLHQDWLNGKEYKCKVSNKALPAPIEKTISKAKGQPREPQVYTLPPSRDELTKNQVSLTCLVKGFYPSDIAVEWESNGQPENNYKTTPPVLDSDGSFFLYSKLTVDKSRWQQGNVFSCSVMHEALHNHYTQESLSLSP
light: B1 light
notes: as for B2
B14: GpH7-B3 variant K326_15Y/GpL16-k0 (antibody, human IgG1, kappa)
heavy: not shown
light: B1 light
notes: as for B2
B15: GpH7-B3 variant P271_11K/GpL16-k0 (antibody, human IgG1, kappa)
heavy: not shown
light: B1 light
notes: as for B2
B16: GpH7-B3 variant A327_09D/GpL16-k0 (antibody, human IgG1, kappa)
heavy: not shown
light: B1 light
notes: as for B2
B17: GpH7-B3 variant E269_08L/GpL16-k0 (antibody, human IgG1, kappa)
heavy: not shown
light: B1 light
notes: as for B2
B18: GpH7-B3 variant Q295_14T/GpL16-k0 (antibody, human IgG1, kappa)
heavy: not shown
light: B1 light
notes: as for B2
B19: GpH7-B3 variant Q295_03V/GpL16-k0 (antibody, human IgG1, kappa)
heavy: not shown
light: B1 light
notes: as for B2
B20: GpH7-B3 variant E269_04F/GpL16-k0 (antibody, human IgG1, kappa)
heavy: not shown
light: B1 light
notes: as for B2
B21: GpH7-B3 variant E269_06M/GpL16-k0 (antibody, human IgG1, kappa)
heavy: not shown
light: B1 light
notes: as for B2
B22: GpH7-B3 variant I336_10E/GpL16-k0 (antibody, human IgG1, kappa)
heavy: not shown
light: B1 light
notes: as for B2
B23: GpH7-B3 variant A330_08L/GpL16-k0 (antibody, human IgG1, kappa)
heavy: not shown
light: B1 light
notes: as for B2
B24: GpH7-B3 variant Q295_07I/GpL16-k0 (antibody, human IgG1, kappa)
heavy: not shown
light: B1 light
notes: as for B2
B25: GpH7-B3 variant I336_01G/GpL16-k0 (antibody, human IgG1, kappa)
heavy: not shown
light: B1 light
notes: as for B2
B26: GpH7-B3 variant I336_18N/GpL16-k0 (antibody, human IgG1, kappa)
heavy: not shown
light: B1 light
notes: as for B2
B27: GpH7-B3 variant I336_03V/GpL16-k0 (antibody, human IgG1, kappa)
heavy: not shown
light: B1 light
notes: as for B2
B28: GpH7-B3 variant K326_14T/GpL16-k0 (antibody, human IgG1, kappa)
heavy: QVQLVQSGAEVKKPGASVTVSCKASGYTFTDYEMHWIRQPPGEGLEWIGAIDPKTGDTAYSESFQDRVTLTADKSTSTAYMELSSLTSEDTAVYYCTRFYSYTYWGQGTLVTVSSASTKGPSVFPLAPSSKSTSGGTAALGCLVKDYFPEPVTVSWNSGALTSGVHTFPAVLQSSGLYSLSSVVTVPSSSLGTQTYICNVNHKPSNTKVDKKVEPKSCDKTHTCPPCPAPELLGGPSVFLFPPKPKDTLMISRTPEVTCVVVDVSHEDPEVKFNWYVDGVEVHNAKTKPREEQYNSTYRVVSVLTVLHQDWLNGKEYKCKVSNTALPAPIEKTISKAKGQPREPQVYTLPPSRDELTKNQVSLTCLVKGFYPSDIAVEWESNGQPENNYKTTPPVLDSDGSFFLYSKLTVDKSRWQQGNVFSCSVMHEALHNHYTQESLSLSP
light: B1 light
notes: as for B2
B29: GpH7-B3 variant Q295_05P/GpL16-k0 (antibody, human IgG1, kappa)
heavy: not shown
light: B1 light
notes: as for B2
B30: GpH7-B3 variant E269_15Y/GpL16-k0 (antibody, human IgG1, kappa)
heavy: not shown
light: B1 light
notes: as for B2
B31: GpH7-B3 variant E333_01G/GpL16-k0 (antibody, human IgG1, kappa)
heavy: not shown
light: B1 light
notes: as for B2
B32: GpH7-B3 variant P271_20W/GpL16-k0 (antibody, human IgG1, kappa)
heavy: not shown
light: B1 light
notes: as for B2
B33: GpH7-B3 variant S298_10E/GpL16-k0 (antibody, human IgG1, kappa)
heavy: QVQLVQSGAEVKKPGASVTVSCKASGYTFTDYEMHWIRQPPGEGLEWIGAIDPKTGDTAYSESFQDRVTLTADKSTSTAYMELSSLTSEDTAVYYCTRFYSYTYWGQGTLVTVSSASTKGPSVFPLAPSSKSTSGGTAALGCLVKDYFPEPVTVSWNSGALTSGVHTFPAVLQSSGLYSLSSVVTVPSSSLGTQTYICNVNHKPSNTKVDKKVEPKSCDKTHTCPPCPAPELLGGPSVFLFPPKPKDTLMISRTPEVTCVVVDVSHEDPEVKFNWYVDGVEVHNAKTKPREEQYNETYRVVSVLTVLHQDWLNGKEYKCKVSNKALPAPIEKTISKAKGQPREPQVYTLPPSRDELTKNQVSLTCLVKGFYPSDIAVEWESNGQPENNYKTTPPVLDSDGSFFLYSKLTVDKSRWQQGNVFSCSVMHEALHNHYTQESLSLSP
light: B1 light
notes: as for B2
B34: GpH7-B3 variant P271_07I/GpL16-k0 (antibody, human IgG1, kappa)
heavy: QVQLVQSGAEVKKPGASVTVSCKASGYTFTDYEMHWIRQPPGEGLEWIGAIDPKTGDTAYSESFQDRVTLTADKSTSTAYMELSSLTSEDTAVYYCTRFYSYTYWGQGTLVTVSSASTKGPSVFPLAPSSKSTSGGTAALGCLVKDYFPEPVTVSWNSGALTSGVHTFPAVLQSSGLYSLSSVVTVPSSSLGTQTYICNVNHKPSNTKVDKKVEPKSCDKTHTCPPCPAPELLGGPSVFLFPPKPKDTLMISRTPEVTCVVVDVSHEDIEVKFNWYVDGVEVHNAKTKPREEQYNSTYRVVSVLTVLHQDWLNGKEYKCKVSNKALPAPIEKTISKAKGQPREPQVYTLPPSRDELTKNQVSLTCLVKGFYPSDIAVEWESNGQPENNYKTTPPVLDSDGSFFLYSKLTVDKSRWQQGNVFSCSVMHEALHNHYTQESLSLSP
light: B1 light
notes: as for B2
B35: GpH7-B3 variant S267_02A/GpL16-k0 (antibody, human IgG1, kappa)
heavy: not shown
light: B1 light
notes: as for B2
B36: GpH7-B3 variant I336_02A/GpL16-k0 (antibody, human IgG1, kappa)
heavy: not shown
light: B1 light
notes: as for B2
B37: GpH7-B3 variant S298_03V/GpL16-k0 (antibody, human IgG1, kappa)
heavy: not shown
light: B1 light
notes: as for B2
B38: GpH7-B3 variant P271_03V/GpL16-k0 (antibody, human IgG1, kappa)
heavy: not shown
light: B1 light
notes: as for B2
B39: GpH7-B3 variant S239_09D/GpL16-k0 (antibody, human IgG1, kappa)
heavy: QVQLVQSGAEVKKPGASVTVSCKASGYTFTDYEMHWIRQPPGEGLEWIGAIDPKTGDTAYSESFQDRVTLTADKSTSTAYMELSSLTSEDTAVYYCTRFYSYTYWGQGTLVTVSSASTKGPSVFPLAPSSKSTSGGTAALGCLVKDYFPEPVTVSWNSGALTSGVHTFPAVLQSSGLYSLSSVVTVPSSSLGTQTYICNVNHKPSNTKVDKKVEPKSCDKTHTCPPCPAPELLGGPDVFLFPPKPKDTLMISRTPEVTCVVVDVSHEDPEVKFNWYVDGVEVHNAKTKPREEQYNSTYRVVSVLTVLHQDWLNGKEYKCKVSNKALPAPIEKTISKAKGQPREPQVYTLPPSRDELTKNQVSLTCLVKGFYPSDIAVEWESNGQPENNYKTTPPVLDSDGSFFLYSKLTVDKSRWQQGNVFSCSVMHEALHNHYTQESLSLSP
light: B1 light
notes: as for B2
B40: GpH7-B3 variant I336_06M/GpL16-k0 (antibody, human IgG1, kappa)
heavy: not shown
light: B1 light
notes: as for B2
B41: GpH7-B3 variant P271_06M/GpL16-k0 (antibody, human IgG1, kappa)
heavy: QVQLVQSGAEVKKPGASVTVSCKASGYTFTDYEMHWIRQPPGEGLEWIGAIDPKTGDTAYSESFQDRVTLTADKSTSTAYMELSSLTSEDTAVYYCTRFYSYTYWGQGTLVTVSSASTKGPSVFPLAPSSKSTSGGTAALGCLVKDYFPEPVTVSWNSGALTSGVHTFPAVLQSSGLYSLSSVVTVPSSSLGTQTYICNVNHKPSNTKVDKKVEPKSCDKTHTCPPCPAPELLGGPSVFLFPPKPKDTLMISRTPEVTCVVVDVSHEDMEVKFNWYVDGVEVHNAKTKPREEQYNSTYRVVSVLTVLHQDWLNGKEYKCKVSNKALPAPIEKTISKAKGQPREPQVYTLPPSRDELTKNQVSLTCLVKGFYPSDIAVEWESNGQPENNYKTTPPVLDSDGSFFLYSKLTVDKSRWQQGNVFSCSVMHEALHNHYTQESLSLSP
light: B1 light
notes: as for B2
B42: GpH7-B3 variant S267_01G/GpL16-k0 (antibody, human IgG1, kappa)
heavy: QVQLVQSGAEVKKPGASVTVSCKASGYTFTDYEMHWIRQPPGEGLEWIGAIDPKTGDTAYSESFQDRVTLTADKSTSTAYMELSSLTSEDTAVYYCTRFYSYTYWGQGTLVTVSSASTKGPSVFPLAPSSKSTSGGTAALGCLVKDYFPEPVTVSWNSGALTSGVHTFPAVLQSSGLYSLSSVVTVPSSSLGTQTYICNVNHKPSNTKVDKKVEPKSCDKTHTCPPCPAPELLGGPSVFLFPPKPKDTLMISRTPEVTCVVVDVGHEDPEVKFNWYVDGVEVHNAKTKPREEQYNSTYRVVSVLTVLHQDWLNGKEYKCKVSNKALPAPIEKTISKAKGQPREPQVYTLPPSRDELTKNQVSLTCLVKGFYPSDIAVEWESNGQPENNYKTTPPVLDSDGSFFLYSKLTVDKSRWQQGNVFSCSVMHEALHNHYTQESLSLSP
light: B1 light
notes: as for B2
B43: GpH7-B3 variant P271_13S/GpL16-k0 (antibody, human IgG1, kappa)
heavy: not shown
light: B1 light
notes: as for B2
B44: GpH7-B3 variant S239_01G/GpL16-k0 (antibody, human IgG1, kappa)
heavy: not shown
light: B1 light
notes: as for B2
B45: GpH7-B3 variant A330_09D/GpL16-k0 (antibody, human IgG1, kappa)
heavy: not shown
light: B1 light
notes: as for B2
B46: GpH7-B3 variant K326_16H/GpL16-k0 (antibody, human IgG1, kappa)
heavy: not shown
light: B1 light
notes: as for B2
B47: GpH7-B3 variant A330_14T/GpL16-k0 (antibody, human IgG1, kappa)
heavy: not shown
light: B1 light
notes: as for B2
B48: GpH7-B3 variant Q295_18N/GpL16-k0 (antibody, human IgG1, kappa)
heavy: not shown
light: B1 light
notes: as for B2
B49: GpH7-B3 variant S298_08L/GpL16-k0 (antibody, human IgG1, kappa)
heavy: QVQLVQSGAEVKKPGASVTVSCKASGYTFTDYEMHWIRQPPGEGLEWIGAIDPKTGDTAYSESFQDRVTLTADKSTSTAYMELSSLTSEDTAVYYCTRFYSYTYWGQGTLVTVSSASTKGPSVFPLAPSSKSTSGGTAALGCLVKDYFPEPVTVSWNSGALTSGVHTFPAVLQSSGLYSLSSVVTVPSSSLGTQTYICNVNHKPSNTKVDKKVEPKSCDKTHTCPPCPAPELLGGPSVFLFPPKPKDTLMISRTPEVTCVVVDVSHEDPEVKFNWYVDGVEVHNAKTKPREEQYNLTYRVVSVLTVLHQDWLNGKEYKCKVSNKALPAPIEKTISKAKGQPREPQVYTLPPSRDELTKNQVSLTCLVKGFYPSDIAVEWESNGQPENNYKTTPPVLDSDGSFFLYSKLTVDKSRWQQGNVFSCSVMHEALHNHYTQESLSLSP
light: B1 light
notes: as for B2
B50: GpH7-B3 variant P271_12R/GpL16-k0 (antibody, human IgG1, kappa)
heavy: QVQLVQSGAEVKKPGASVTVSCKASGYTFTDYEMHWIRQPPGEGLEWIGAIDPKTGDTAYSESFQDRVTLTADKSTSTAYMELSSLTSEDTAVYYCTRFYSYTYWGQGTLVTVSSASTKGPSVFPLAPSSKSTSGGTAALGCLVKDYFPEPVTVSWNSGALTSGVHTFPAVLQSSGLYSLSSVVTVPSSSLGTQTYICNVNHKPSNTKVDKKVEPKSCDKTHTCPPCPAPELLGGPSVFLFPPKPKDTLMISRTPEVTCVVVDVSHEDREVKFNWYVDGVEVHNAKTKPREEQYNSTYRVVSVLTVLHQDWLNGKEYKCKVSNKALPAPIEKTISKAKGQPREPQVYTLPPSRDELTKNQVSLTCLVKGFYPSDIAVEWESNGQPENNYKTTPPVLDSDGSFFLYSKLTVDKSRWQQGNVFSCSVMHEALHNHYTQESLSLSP
light: B1 light
notes: as for B2

Assays:
[1] = molecular target: T1, FcγRIa (human, UniProt P12314 16-292); test: SPR (Biacore), antibody captured, FcγR as analyte; relative to GpH7-A5/GpH7-B3/GpL16-k0 = 100
T1 construct: extracellular domain; Soluble extracellular domain with C-terminal His tag, used as analyte in Biacore; also called FcgRI; 1a; not shown: His tag attached to the C terminus
Method: (§1) The heterodimerized antibodies He Abs in which one of the H chains was introduced with an alteration were assayed for their binding activities to each activating FcγR and inhibitory FcγR according to the method described in Example 4. […] The activating FcγRs in FIGS. 26, 27, 28, and 29 are FcγRIa, FcγRIIa (R), FcγRIIa (H), and FcγRIIIa, respectively.
(§2) Analysis of interaction between objective antibody and the FcγR was carried out using Biacore T100 (GE Healthcare). HBS-EP+ (GE Healthcare) was used as the running buffer, and the measurement temperature was set to 25° C. Chips produced by immobilizing the antigen peptide by the amine coupling method to a Series S Sencor Chip CM5 (GE Healthcare), or alternatively, chips produced by allowing preliminarily biotinylated antigen peptides to interact with and immobilize onto a Series S Sensor Chip SA (certified) (GE Healthcare) were used. Antibodies of interest were captured onto an antigen peptide-immobilized chip, and allowed to interact to each FcγR diluted with running buffer. To regenerate and repeatedly use the chip, the antibodies captured on the chip were washed off by reacting 10 mM glycine-HCl, pH 1.5.
T1 sequence (P12314 16-292): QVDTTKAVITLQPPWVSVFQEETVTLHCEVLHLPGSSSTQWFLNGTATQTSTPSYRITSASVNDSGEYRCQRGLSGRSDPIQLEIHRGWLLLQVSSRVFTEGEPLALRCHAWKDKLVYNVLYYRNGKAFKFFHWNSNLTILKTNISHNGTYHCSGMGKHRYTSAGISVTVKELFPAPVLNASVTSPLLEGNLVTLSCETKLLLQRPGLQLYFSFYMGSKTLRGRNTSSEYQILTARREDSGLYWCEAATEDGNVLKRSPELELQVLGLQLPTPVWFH

[2] = molecular target: T2, FcγRIIb (human, UniProt P31994 43-217); test: as above
T2 construct: extracellular domain; Soluble extracellular domain with C-terminal His tag, used as analyte in Biacore; also called FcgRIIb; 2b; not shown: His tag attached to the C terminus
T2 sequence (looked up): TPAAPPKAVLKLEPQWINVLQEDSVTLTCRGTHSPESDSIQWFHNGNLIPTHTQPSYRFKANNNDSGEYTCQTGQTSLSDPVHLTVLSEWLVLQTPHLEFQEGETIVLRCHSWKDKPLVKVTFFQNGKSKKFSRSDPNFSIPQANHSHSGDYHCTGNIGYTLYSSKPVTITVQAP
Method: as §1, §2

[3] = molecular target: T3, FcγRIa (human, UniProt P12314 16-292); test: SPR (Biacore), captured antibody, FcγRIa analyte; relative to HoCon Ab GpH7-B3/GpL16-k0 = 100
T3 construct: extracellular domain; soluble extracellular domain with C-terminal His tag, expressed in FreeStyle293 cells; also called FcgRI; FcgRIa
T3 sequence (P12314 16-292): as the sequence (P12314 16-292) above

| Binder | Ho/Con_1a [3] | other results |
| --- | --- | --- |
| B1 |  | He/Con_1a [1]: 98.1 % of control (=100); He/Con_2b [2]: 236 % of control (=100) |
| B2 | 102 % of control |  |
| B3 | 107 % of control |  |
| B4 | 101 % of control |  |
| B5 | 106 % of control |  |
| B6 | 104 % of control |  |
| B7 | 103 % of control |  |
| B8 | 100 % of control |  |
| B9 | 100 % of control |  |
| B10 | 104 % of control |  |
| B11 | 101 % of control |  |
| B12 | 102 % of control |  |
| B13 | 104 % of control |  |
| B14 | 101 % of control |  |
| B15 | 101 % of control |  |
| B16 | 102 % of control |  |
| B17 | 101 % of control |  |
| B18 | 102 % of control |  |
| B19 | 102 % of control |  |
| B20 | 102 % of control |  |
| B21 | 101 % of control |  |
| B22 | 107 % of control |  |
| B23 | 106 % of control |  |
| B24 | 101 % of control |  |
| B25 | 104 % of control |  |

| Binder | Ho/Con_1a [3] | other results |
| --- | --- | --- |
| B26 | 104 % of control |  |
| B27 | 105 % of control |  |
| B28 | 103 % of control |  |
| B29 | 101 % of control |  |
| B30 | 100 % of control |  |
| B31 | 100 % of control |  |
| B32 | 102 % of control |  |
| B33 | 106 % of control |  |
| B34 | 102 % of control |  |
| B35 | 108 % of control |  |
| B36 | 103 % of control |  |
| B37 | 106 % of control |  |
| B38 | 102 % of control |  |
| B39 | 101 % of control |  |
| B40 | 104 % of control |  |
| B41 | 102 % of control |  |
| B42 | 102 % of control |  |
| B43 | 101 % of control |  |
| B44 | 101 % of control |  |
| B45 | 108 % of control |  |
| B46 | 101 % of control |  |
| B47 | 105 % of control |  |
| B48 | 101 % of control |  |
| B49 | 104 % of control |  |
| B50 | 101 % of control |  |
